According to US20050026839A1 (GENERAL HOSPITAL, published 2005):
Read-outs that look alike come from different tables or passages of the source. Square brackets hold non-standard residues; d marks the D form. Ends that are not written are not given here. hArg = N=C(N)NCCCC[C@H](N)C(=O)O; Aib = CC(C)(N)C(=O)O

T1: wild-type human PTH/PTHrP receptor (hP1R-WT) (human, UniProt Q03431 27-593)
T1 construct: whole, on cells; HKRK-B28 cells express ~280,000 receptors per cell; also called PTH-1 receptor; PTH-1R
T1 sequence (looked up): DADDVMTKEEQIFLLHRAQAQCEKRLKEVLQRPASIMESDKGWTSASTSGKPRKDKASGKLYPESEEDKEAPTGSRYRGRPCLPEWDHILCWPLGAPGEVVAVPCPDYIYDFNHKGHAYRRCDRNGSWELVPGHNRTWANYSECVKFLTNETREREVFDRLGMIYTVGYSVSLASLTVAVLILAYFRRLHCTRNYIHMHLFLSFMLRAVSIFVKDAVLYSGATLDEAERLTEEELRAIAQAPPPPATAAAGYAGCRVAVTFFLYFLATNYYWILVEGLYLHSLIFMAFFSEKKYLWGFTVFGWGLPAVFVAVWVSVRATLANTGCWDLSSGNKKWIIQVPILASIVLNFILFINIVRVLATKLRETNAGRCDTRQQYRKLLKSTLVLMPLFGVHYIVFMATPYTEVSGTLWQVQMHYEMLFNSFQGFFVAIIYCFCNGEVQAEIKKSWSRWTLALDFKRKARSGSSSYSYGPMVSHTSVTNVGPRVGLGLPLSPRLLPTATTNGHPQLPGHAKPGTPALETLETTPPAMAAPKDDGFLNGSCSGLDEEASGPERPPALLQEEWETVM

T2: truncated human P1R deleted for residues (24-181) (hP1R-delNt) (human, UniProt Q03431 182-593)
T2 construct: whole, on cells; also called delNT receptor
T2 sequence (looked up): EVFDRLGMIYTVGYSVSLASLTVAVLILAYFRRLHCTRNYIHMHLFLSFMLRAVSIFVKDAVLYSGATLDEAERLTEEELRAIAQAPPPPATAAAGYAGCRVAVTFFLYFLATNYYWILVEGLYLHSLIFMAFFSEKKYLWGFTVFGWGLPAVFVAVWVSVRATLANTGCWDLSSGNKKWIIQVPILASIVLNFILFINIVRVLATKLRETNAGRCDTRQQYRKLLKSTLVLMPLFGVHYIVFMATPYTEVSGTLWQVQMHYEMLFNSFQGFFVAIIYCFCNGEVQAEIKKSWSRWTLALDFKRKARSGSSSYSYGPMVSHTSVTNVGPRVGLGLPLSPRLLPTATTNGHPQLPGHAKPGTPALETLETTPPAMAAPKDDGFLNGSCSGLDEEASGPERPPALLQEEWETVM


What was measured:
[1] = molecular target: wild-type human PTH/PTHrP receptor (hP1R-WT) (human) (UniProt Q03431); experiment: cell-based or functional assay
[2] = molecular target: T1, wild-type human PTH/PTHrP receptor …; experiment: competition binding, 125I-[M]PTH(1-21) tracer, HKRK-B28 cells, 4 h at 4 C
Procedure: (§1) Competition Binding. Binding reactions were performed with HKRK-B28 cells or in COS-7 cells in 24-well plates. The cells were rinsed with 0.5 mL of binding buffer, and then treated successively with 100 μL binding buffer, 100 μL of binding buffer containing various amounts of unlabeled competitor ligand, and 100 μL of binding buffer containing ca. 100,000 cpm of ¹²⁵I-[M]PTH(1-21) or ¹²⁵I-[Aib^{1,3},M]PTH(1-21)} (ca. 26 fmol; final volume=300 μL). Incubations were 4 to 6 h at 4° C., at which time near equilibrium conditions were attained. Cells were then placed on ice, the binding medium was removed, and the monolayer was rinsed three times with 0.5 mL of cold binding buffer. The cells were subsequently lysed with 0.5 mL […] NaOH and counted for radioactivity. For each tracer and in each experiment, the non-specific binding was determined as the radioactivity that bound in the presence of the same unlabeled peptide at a concentration of 1 μM, and was ˜1% of total radioactivity added for each tracer. The maximum specific binding (B₀) was the total radioactivity bound in the absence of competing ligand, corrected for nonspecific binding, and for each tracer, ranged from 8% to 20% of the total radioactivity added. Nonlinear regression was used to calculate binding IC₅₀ values (see below). Scatchard transformations of homologous competition binding data derived from studies with 26 fmol of ¹²⁵I-[Aib^{1,3},M]PTH(1-21) were employed for estimations of apparent equilibrium dissociation constant (kDapps) and total number of ligand binding sites (Bₘₐₓ), assuming a single class of binding sites and equal affinities of the iodinated and non iodinated ligand.
Peptides PTH(1-34) ([Nle^{8,21}, Tyr³⁴]PTH(1-34)amide), [M]PTH(1-14) (M = Ala^{3,12}, Gln¹⁰, Har¹¹, Trp¹⁴), and [M]PTH(1-14 analogs, or C-terminally truncated derivatives thereof, containing α-aminoisobutyric acid (Aib) substitutions at the indicated positions were functionally evaluated in HKRK-B28 cells. “M” in [Aib^{1,3}, M]PTH(1-21) = Nle⁸, Gln¹⁰, Har¹¹, Ala¹², Trp¹⁴, Arg¹⁹ and Tyr²¹. The basal cAMP values (not subtracted) were 4.0 ± 0.1 pmole/well (n = 10). Peptides were based on the rat PTH sequence and were carboxy-amidated. Competition binding analyses were performed with ¹²⁵I-[M]PTH(1-21 )amide (Ala^{1,3}) as tracer for 4 h at 4° C. Data are means (±S.E.M.) Of the number of experiments indiated (n).

[3] = molecular target: T1, wild-type human PTH/PTHrP receptor …; experiment: competition binding, 125I-[M]PTH(1-21) tracer, HKRK-B28 cells
Procedure: as §1, with “Cells” for “Competition Binding. Binding reactions were performed with HKRK-B28 cells or in COS-7 cells in 24-well plates. The cells were rinsed with 0.5 mL of binding buffer, and then treated successively with 100 μL binding buffer, 100 μL of binding buffer containing various amounts of unlabeled competitor ligand, and 100 μL of binding buffer containing ca. 100,000 cpm of ¹²⁵I-[M]PTH(1-21) or ¹²⁵I-[Aib^{1,3},M]PTH(1-21)} (ca. 26 fmol; final volume=300 μL). Incubations were 4 to 6 h at 4° C., at which time near equilibrium conditions were attained. Cells”
Relative to the apparent binding affinity of [M]PTH(1-14), most of the Aib substitutions reduced affinity, in accordance with the corresponding effects on cAMP-signaling potency (Table 1).

[4] = molecular target: T1, wild-type human PTH/PTHrP receptor …; experiment: cell-based or functional assay
[5] = molecular target: T1, wild-type human PTH/PTHrP receptor …; experiment: cell-based or functional assay; remark: listed apart in the source
[6] = molecular target: T2, truncated human P1R deleted for …; experiment: competition binding, 125I-[Aib1,3,M]PTH(1-21) tracer, COS-7 cells expressing hP1R-delNt
Procedure: Stock solutions of EGTA/trypsin and antibiotics were from GIBCO; fetal bovine serum was from Hyclone Laboratories (Logan, Utah). […] All cells, in 24-well plates, were treated with fresh media and shifted to 33° C. for 12 to 24 h prior to assay.
as §1

[7] = molecular target: T1, wild-type human PTH/PTHrP receptor …; experiment: cell-based or functional assay; remark: listed apart in the source
[8] = molecular target: T2, truncated human P1R deleted for …; experiment: cell-based or functional assay
[9] = molecular target: T1, wild-type human PTH/PTHrP receptor …; experiment: competition binding, 125I-[Aib1,3,M]PTH(1-21) tracer, COS-7 cells expressing hP1R-WT
Procedure: as §1

| Molecule | IC50 [2] | cAMP EC50 [4] | cAMP EMax(obs.) [4] | fold reduction in affinity relative to [M]PTH(1-14) [3] | other results |
| --- | --- | --- | --- | --- | --- |
| [Aib^11,M]PTH(1-14) (peptide) | – | – | – | – | cAMP EC50 [1]: 67000 nM; cAMP EMax(obs.) [1]: 96 pmole/well |
| [Aib]VAEIQLMHQ[hArg]AKW-NH2 (N-terminus assumed; SMILES CC[C@H](C)[C@H](NC(=O)[C@H](CCC(=O)O)NC(=O)[C@H](C)NC(=O)[C@@H](NC(=O)C(C)(C)N)C(C)C)C(=O)N[C@@H](CCC(N)=O)C(=O)N[C@@H](CC(C)C)C(=O)N[C@@H](CCSC)C(=O)N[C@@H](Cc1c[nH]cn1)C(=O)N[C@@H](CCC(N)=O)C(=O)N[C@@H](CCCCNC(=N)N)C(=O)N[C@@H](C)C(=O)N[C@@H](CCCCN)C(=O)N[C@@H](Cc1c[nH]c2ccccc12)C(N)=O, also called 622 Aib-1) [[Aib^1,M]PTH(1-14)] | 980 nM | 10 nM | 273 pmole/well | – | fold improvement in affinity relative to [M]PTH(1-14) [3]: 13 fold; cAMP EC50 in SaOS-2 cells [5]: 22 nM; cAMP EMAX(obs.) in SaOS-2 cells [5]: 340 pmole/well |
| AVAEIQLMHQ[hArg][Aib]KW-NH2 (N-terminus assumed; SMILES CC[C@H](C)[C@H](NC(=O)[C@H](CCC(=O)O)NC(=O)[C@H](C)NC(=O)[C@@H](NC(=O)[C@H](C)N)C(C)C)C(=O)N[C@@H](CCC(N)=O)C(=O)N[C@@H](CC(C)C)C(=O)N[C@@H](CCSC)C(=O)N[C@@H](Cc1c[nH]cn1)C(=O)N[C@@H](CCC(N)=O)C(=O)N[C@@H](CCCCNC(=N)N)C(=O)NC(C)(C)C(=O)N[C@@H](CCCCN)C(=O)N[C@@H](Cc1c[nH]c2ccccc12)C(N)=O, Aib scan of [M]PTH(1-14); Aib replaces the Ala^12 of [M]; also called 633 Aib-12) [[Aib^12,M]PTH(1-14)] | 15000 nM | 440 nM | 263 pmole/well | < 10 fold | – |
| AVAEIQLMHQ[hArg]A[Aib]W-NH2 (N-terminus assumed; SMILES CC[C@H](C)[C@H](NC(=O)[C@H](CCC(=O)O)NC(=O)[C@H](C)NC(=O)[C@@H](NC(=O)[C@H](C)N)C(C)C)C(=O)N[C@@H](CCC(N)=O)C(=O)N[C@@H](CC(C)C)C(=O)N[C@@H](CCSC)C(=O)N[C@@H](Cc1c[nH]cn1)C(=O)N[C@@H](CCC(N)=O)C(=O)N[C@@H](CCCCNC(=N)N)C(=O)N[C@@H](C)C(=O)NC(C)(C)C(=O)N[C@@H](Cc1c[nH]c2ccccc12)C(N)=O, Aib scan of [M]PTH(1-14); also called 634 Aib-13) [[Aib^13,M]PTH(1-14)] | 44000 nM | 480 nM | 259 pmole/well | < 10 fold | – |
| AV[Aib]EIQLMHQ[hArg]AKW-NH2 (N-terminus assumed; SMILES CC[C@H](C)[C@H](NC(=O)[C@H](CCC(=O)O)NC(=O)C(C)(C)NC(=O)[C@@H](NC(=O)[C@H](C)N)C(C)C)C(=O)N[C@@H](CCC(N)=O)C(=O)N[C@@H](CC(C)C)C(=O)N[C@@H](CCSC)C(=O)N[C@@H](Cc1c[nH]cn1)C(=O)N[C@@H](CCC(N)=O)C(=O)N[C@@H](CCCCNC(=N)N)C(=O)N[C@@H](C)C(=O)N[C@@H](CCCCN)C(=O)N[C@@H](Cc1c[nH]c2ccccc12)C(N)=O, also called 624 Aib-3) [[Aib^3,M]PTH(1-14)] | 1700 nM | 13 nM | 269 pmole/well | – | fold improvement in affinity relative to [M]PTH(1-14) [3]: 8 fold; cAMP EC50 in SaOS-2 cells [5]: 42 nM; cAMP EMAX(obs.) in SaOS-2 cells [5]: 330 pmole/well |
| [Aib]V[Aib]EIQLMHQ[hArg]-NH2 (N-terminus assumed; SMILES CC[C@H](C)[C@H](NC(=O)[C@H](CCC(=O)O)NC(=O)C(C)(C)NC(=O)[C@@H](NC(=O)C(C)(C)N)C(C)C)C(=O)N[C@@H](CCC(N)=O)C(=O)N[C@@H](CC(C)C)C(=O)N[C@@H](CCSC)C(=O)N[C@@H](Cc1c[nH]cn1)C(=O)N[C@@H](CCC(N)=O)C(=O)N[C@@H](CCCCNC(=N)N)C(N)=O, also called 682 [Aib^1,3, M]PTH (1-11); [Aib^1,3,Gln^10,Har^11]PTH(1-11)) [[Aib^1,3,M]PTH(1-11)] | 970 nM | 4 nM | 243 pmole/well | – | IC50 [6]: 13000 nM; cAMP EC50 [7]: 2.1 nM; cAMP EMax(obs.) [7]: 190 pmole/well; cAMP EC50 [8]: 2 nM; cAMP EMax(obs.) [8]: 220 pmole/well; IC50 [9]: 16000 nM |
| AVAEIQLMHQ[hArg]AK[Aib]-NH2 (N-terminus assumed; SMILES CC[C@H](C)[C@H](NC(=O)[C@H](CCC(=O)O)NC(=O)[C@H](C)NC(=O)[C@@H](NC(=O)[C@H](C)N)C(C)C)C(=O)N[C@@H](CCC(N)=O)C(=O)N[C@@H](CC(C)C)C(=O)N[C@@H](CCSC)C(=O)N[C@@H](Cc1c[nH]cn1)C(=O)N[C@@H](CCC(N)=O)C(=O)N[C@@H](CCCCNC(=N)N)C(=O)N[C@@H](C)C(=O)N[C@@H](CCCCN)C(=O)NC(C)(C)C(N)=O, Aib scan of [M]PTH(1-14); Aib replaces the Trp^14 of [M]; also called 635 Aib-14) [[Aib^14,M]PTH(1-14)] | 79000 nM | 350 nM | 273 pmole/well | < 10 fold | – |
